This note sets out measurements from US20160144003A1 (Scripps Research, published 2016).

Series [1] concerns the molecule itself. The series can be described thus: sedimentation equilibrium AUC, monomer-dimer self-association. The procedure:
FIGS. 8A-8F show sedimentation equilibrium analysis of WT and CMT-causing mutant human GlyRS proteins. Three cells containing different concentrations of each protein sample were centrifuged at 9000 rpm (solid curved line), 14000 rpm (mixed-dash curved line), and 19000 rpm (dash curved line). Absorbance data for each cell was collected at 280 nm and 230 nm wavelength. The meniscus (vertical dot-dash line) in each cell was set manually, while the bottom (vertical dash line) was allowed to float. Data within the fit limits (vertical solid lines) was globally fitted to the monomer-dimer self-association model in SEDPHAT. Data beyond approximately 1.5 absorbance was omitted in case of non-linearity of the detection instrumentation. The fits for the 9000, 14000, and 19000 rpm data are represented by the solid, mixed dash, and dash lines respectively.
WT and mutant GlyRSs were cloned and expressed as described (see Xie et al., Acta Crystallogr Sect F Struct Biol Cryst Commun 62:1243-1246, 2006), and purified to more than 99% homogeneity in three steps: nickel affinity, Mono Q and size exclusion chromatography. Sedimentation equilibrium experiments were performed in a Beckman Optima XL-1 analytical ultracentrifuge with integrated optical systems. All protein samples (0.5 μM, 1.25 μM, 2.5 μM) were prepared in DPBS buffer (2.67 mM potassium chloride, 1.47 mM potassium phosphate monobasic, 137.93 mM sodium chloride and 8.06 mM sodium phosphate dibasic, pH 7.2) and purified by size exclusion chromatography immediately prior to centrifugation. The buffer density and viscosity, and the protein partial specific volume were determined by SEDPHAT (see Lebowitz et al., Protein Sci. 11:2067-2079, 2002). Samples (180 μL) in two-channel cells were centrifuged in a Beckman An-60 Ti rotor at speeds of […] at 4° C. Equilibrium was reached after 36 hours for each speed and verified by comparison with a second scan taken every 6 hours. Data was collected at 280 nm and […]. Data sets consisting of 18 curves per protein (3 concentrations, 3 rotor speeds and 2 wavelengths each) were analyzed by global fitting to the monomer-dimer self-association model using the program SEDPHAT (Id.).

Series [2] concerns the target T1, GFP-neuropilin (NRP1) fusion protein on transfected cells.
T1 construct: whole, on cells; also called GFP-NRP1; NRP1-EGFP
In words: cell counts of confocal images, N2a cells expressing GFP-NRP1 incubated with GlyRS. The procedure: Confocal microscopy analysis was performed to assess the influence of GlyRS and CMT-associated GlyRS mutants on neuropilin-mediated neurite outgrowth. Mouse neuroblastoma N2a cells were transfected with either control pEGFP or NRP1-EGFP. After 24 hours, the cells were plated onto Fibronectin coated coverslips. Then N2a cells were then incubated with or without 200 nM wild-type GlyRS or CMT-associated GlyRS mutants (L129P, G240R, G526R) at 4° C. for 1 hour. Cells were then washed three times with DPBS buffer and fixed with 4% formaldehyde. The coverslips were mounted with Prolong Gold Antifade Reagent with DAPI (invitrogen) at 25° C. for overnight. Images were then taken using the Bio-Rad (Zeiss) Radiance 2100 Rainbow laser scanning confocal microscope (LSCM).

T1 sequence (O14786 22-923): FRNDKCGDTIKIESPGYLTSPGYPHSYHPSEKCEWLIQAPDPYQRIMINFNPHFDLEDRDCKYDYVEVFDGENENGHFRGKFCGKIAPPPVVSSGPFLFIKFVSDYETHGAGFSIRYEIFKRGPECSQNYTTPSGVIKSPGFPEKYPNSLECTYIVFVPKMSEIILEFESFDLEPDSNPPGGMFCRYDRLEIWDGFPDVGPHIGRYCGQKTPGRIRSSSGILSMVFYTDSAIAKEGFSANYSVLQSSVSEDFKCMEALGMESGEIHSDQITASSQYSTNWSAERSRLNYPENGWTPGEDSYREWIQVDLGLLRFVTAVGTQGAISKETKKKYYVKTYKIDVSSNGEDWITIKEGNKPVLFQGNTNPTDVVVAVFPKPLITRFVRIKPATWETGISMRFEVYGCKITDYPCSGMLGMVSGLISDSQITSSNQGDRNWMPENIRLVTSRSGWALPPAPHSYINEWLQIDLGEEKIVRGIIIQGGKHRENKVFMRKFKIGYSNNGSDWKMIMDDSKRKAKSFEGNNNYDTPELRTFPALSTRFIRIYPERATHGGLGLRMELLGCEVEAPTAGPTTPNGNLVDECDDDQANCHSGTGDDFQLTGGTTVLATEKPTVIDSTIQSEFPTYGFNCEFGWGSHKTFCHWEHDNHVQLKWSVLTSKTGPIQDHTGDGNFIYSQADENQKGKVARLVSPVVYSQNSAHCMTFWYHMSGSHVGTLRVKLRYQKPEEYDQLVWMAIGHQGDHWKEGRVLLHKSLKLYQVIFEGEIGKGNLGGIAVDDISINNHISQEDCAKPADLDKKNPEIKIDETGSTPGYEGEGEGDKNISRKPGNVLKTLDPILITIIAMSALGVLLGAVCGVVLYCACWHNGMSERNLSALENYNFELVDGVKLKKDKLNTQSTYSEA

B1: wild-type human glycyl-tRNA synthetase (GlyRS) (enzyme)
chain: MDGAGAEEVLAPLRLAVRQQGDLVRKLKEDKAPQVDVDKAVAELKARKRVLEAKELALQPKDDIVDRAKMEDTLKRRFFYDQAFAIYGGVSGLYDFGPVGCALKNNIIQTWRQHFIQEEQILEIDCTMLTPEPVLKTSGHVDKFADFMVKDVKNGECFRADHLLKAHLQKLMSDKKCSVEKKSEMESVLAQLDNYGQQELADLFVNYNVKSPITGNDLSPPVSFNLMFKTFIGPGGNMPGYLRPETAQGIFLNFKRLLEFNQGKLPFAAAQIGNSFRNEISPRSGLIRVREFTMAEIEHFVDPSEKDHPKFQNVADLHLYLYSAKAQVSGQSARKMRLGDAVEQGVINNTVLGYFIGRIYLYLTKVGISPDKLRFRQHMENEMAHYACDCWDAESKTSYGWIEIVGCADRSCYDLSCHARATKVPLVAEKPLKEPKTVNVVQFEPSKGAIGKAYKKDAKLVMEYLAICDECYITEMEMLLNEKGEFTIETEGKTFQLTKDMINVKRFQKTLYVEEVVPNVIEPSFGLGRIMYTVFEHTFHVREGDEQRTFFSFPAVVAPFKCSVLPLSQNQEFMPFVKELSEALTRHGVSHKVDDSSGSIGRRYARTDEIGVAFGVTIDFDTVNKTPHTATLRDRDSMRQIRAEISELPSIVQDLANGNITWADVEARYPLFEGQETGKKETIEE
notes: Used as a GlyRS-His fusion protein in the neuropilin assays; also called WT GlyRS; WT; not shown: His tag
Usually Kd stands for the free concentration of one partner at which half of the binding sites on the other are occupied at equilibrium, for simple one-to-one binding. High values mean lower affinity, low ones higher affinity. In series [1], B1 registered a Kd of 560 nM. In series [2], this molecule displayed a Cell number % of 8.6%.

B2: human GlyRS G598A mutant (enzyme)
chain: MDGAGAEEVLAPLRLAVRQQGDLVRKLKEDKAPQVDVDKAVAELKARKRVLEAKELALQPKDDIVDRAKMEDTLKRRFFYDQAFAIYGGVSGLYDFGPVGCALKNNIIQTWRQHFIQEEQILEIDCTMLTPEPVLKTSGHVDKFADFMVKDVKNGECFRADHLLKAHLQKLMSDKKCSVEKKSEMESVLAQLDNYGQQELADLFVNYNVKSPITGNDLSPPVSFNLMFKTFIGPGGNMPGYLRPETAQGIFLNFKRLLEFNQGKLPFAAAQIGNSFRNEISPRSGLIRVREFTMAEIEHFVDPSEKDHPKFQNVADLHLYLYSAKAQVSGQSARKMRLGDAVEQGVINNTVLGYFIGRIYLYLTKVGISPDKLRFRQHMENEMAHYACDCWDAESKTSYGWIEIVGCADRSCYDLSCHARATKVPLVAEKPLKEPKTVNVVQFEPSKGAIGKAYKKDAKLVMEYLAICDECYITEMEMLLNEKGEFTIETEGKTFQLTKDMINVKRFQKTLYVEEVVPNVIEPSFGLGRIMYTVFEHTFHVREGDEQRTFFSFPAVVAPFKCSVLPLSQNQEFMPFVKELSEALTRHGVSHKVDDSSASIGRRYARTDEIGVAFGVTIDFDTVNKTPHTATLRDRDSMRQIRAEISELPSIVQDLANGNITWADVEARYPLFEGQETGKKETIEE
notes: Only in the dimerization measurement (sedimentation equilibrium); also called G598A GlyRS; not shown: the tag is not described
For the molecule B2, the Kd in series [1] came out at 390 nM.

B3: human GlyRS G526R mutant (enzyme)
chain: MDGAGAEEVLAPLRLAVRQQGDLVRKLKEDKAPQVDVDKAVAELKARKRVLEAKELALQPKDDIVDRAKMEDTLKRRFFYDQAFAIYGGVSGLYDFGPVGCALKNNIIQTWRQHFIQEEQILEIDCTMLTPEPVLKTSGHVDKFADFMVKDVKNGECFRADHLLKAHLQKLMSDKKCSVEKKSEMESVLAQLDNYGQQELADLFVNYNVKSPITGNDLSPPVSFNLMFKTFIGPGGNMPGYLRPETAQGIFLNFKRLLEFNQGKLPFAAAQIGNSFRNEISPRSGLIRVREFTMAEIEHFVDPSEKDHPKFQNVADLHLYLYSAKAQVSGQSARKMRLGDAVEQGVINNTVLGYFIGRIYLYLTKVGISPDKLRFRQHMENEMAHYACDCWDAESKTSYGWIEIVGCADRSCYDLSCHARATKVPLVAEKPLKEPKTVNVVQFEPSKGAIGKAYKKDAKLVMEYLAICDECYITEMEMLLNEKGEFTIETEGKTFQLTKDMINVKRFQKTLYVEEVVPNVIEPSFRLGRIMYTVFEHTFHVREGDEQRTFFSFPAVVAPFKCSVLPLSQNQEFMPFVKELSEALTRHGVSHKVDDSSGSIGRRYARTDEIGVAFGVTIDFDTVNKTPHTATLRDRDSMRQIRAEISELPSIVQDLANGNITWADVEARYPLFEGQETGKKETIEE
notes: GlyRS-His fusion protein in the pull-down assay; also called G526R GlyRS; not shown: His tag
On to B3, for which the “fold decrease in Kd of dimerization relative to WT GlyRS” value in series [1] fell in the range of 3 to 4 fold. This molecule came in with a Cell number % in series [2] of 20.7%.

B4: human GlyRS L129P mutant (enzyme)
chain: MDGAGAEEVLAPLRLAVRQQGDLVRKLKEDKAPQVDVDKAVAELKARKRVLEAKELALQPKDDIVDRAKMEDTLKRRFFYDQAFAIYGGVSGLYDFGPVGCALKNNIIQTWRQHFIQEEQILEIDCTMPTPEPVLKTSGHVDKFADFMVKDVKNGECFRADHLLKAHLQKLMSDKKCSVEKKSEMESVLAQLDNYGQQELADLFVNYNVKSPITGNDLSPPVSFNLMFKTFIGPGGNMPGYLRPETAQGIFLNFKRLLEFNQGKLPFAAAQIGNSFRNEISPRSGLIRVREFTMAEIEHFVDPSEKDHPKFQNVADLHLYLYSAKAQVSGQSARKMRLGDAVEQGVINNTVLGYFIGRIYLYLTKVGISPDKLRFRQHMENEMAHYACDCWDAESKTSYGWIEIVGCADRSCYDLSCHARATKVPLVAEKPLKEPKTVNVVQFEPSKGAIGKAYKKDAKLVMEYLAICDECYITEMEMLLNEKGEFTIETEGKTFQLTKDMINVKRFQKTLYVEEVVPNVIEPSFGLGRIMYTVFEHTFHVREGDEQRTFFSFPAVVAPFKCSVLPLSQNQEFMPFVKELSEALTRHGVSHKVDDSSGSIGRRYARTDEIGVAFGVTIDFDTVNKTPHTATLRDRDSMRQIRAEISELPSIVQDLANGNITWADVEARYPLFEGQETGKKETIEE
notes: also called L129P GlyRS; L129P-His; not shown: His tag
With B4, in series [1], binding was put at a Kd of 41000 nM and the “fold increase in Kd of dimerization relative to WT GlyRS” value was found to be 73 fold. This molecule also came in with a Cell number % in series [2] of 37.7%.

B5: human GlyRS S581L mutant (enzyme)
chain: MDGAGAEEVLAPLRLAVRQQGDLVRKLKEDKAPQVDVDKAVAELKARKRVLEAKELALQPKDDIVDRAKMEDTLKRRFFYDQAFAIYGGVSGLYDFGPVGCALKNNIIQTWRQHFIQEEQILEIDCTMLTPEPVLKTSGHVDKFADFMVKDVKNGECFRADHLLKAHLQKLMSDKKCSVEKKSEMESVLAQLDNYGQQELADLFVNYNVKSPITGNDLSPPVSFNLMFKTFIGPGGNMPGYLRPETAQGIFLNFKRLLEFNQGKLPFAAAQIGNSFRNEISPRSGLIRVREFTMAEIEHFVDPSEKDHPKFQNVADLHLYLYSAKAQVSGQSARKMRLGDAVEQGVINNTVLGYFIGRIYLYLTKVGISPDKLRFRQHMENEMAHYACDCWDAESKTSYGWIEIVGCADRSCYDLSCHARATKVPLVAEKPLKEPKTVNVVQFEPSKGAIGKAYKKDAKLVMEYLAICDECYITEMEMLLNEKGEFTIETEGKTFQLTKDMINVKRFQKTLYVEEVVPNVIEPSFGLGRIMYTVFEHTFHVREGDEQRTFFSFPAVVAPFKCSVLPLSQNQEFMPFVKELLEALTRHGVSHKVDDSSGSIGRRYARTDEIGVAFGVTIDFDTVNKTPHTATLRDRDSMRQIRAEISELPSIVQDLANGNITWADVEARYPLFEGQETGKKETIEE
notes: also called S581L GlyRS; not shown: His tag
Turning to B5, in series [1], the dissociation constant Kd was 190 nM and the “fold decrease in Kd of dimerization relative to WT GlyRS” value lay within 3 to 4 fold.

B6: human GlyRS G240R mutant (enzyme)
chain: MDGAGAEEVLAPLRLAVRQQGDLVRKLKEDKAPQVDVDKAVAELKARKRVLEAKELALQPKDDIVDRAKMEDTLKRRFFYDQAFAIYGGVSGLYDFGPVGCALKNNIIQTWRQHFIQEEQILEIDCTMLTPEPVLKTSGHVDKFADFMVKDVKNGECFRADHLLKAHLQKLMSDKKCSVEKKSEMESVLAQLDNYGQQELADLFVNYNVKSPITGNDLSPPVSFNLMFKTFIGPGGNMPRYLRPETAQGIFLNFKRLLEFNQGKLPFAAAQIGNSFRNEISPRSGLIRVREFTMAEIEHFVDPSEKDHPKFQNVADLHLYLYSAKAQVSGQSARKMRLGDAVEQGVINNTVLGYFIGRIYLYLTKVGISPDKLRFRQHMENEMAHYACDCWDAESKTSYGWIEIVGCADRSCYDLSCHARATKVPLVAEKPLKEPKTVNVVQFEPSKGAIGKAYKKDAKLVMEYLAICDECYITEMEMLLNEKGEFTIETEGKTFQLTKDMINVKRFQKTLYVEEVVPNVIEPSFGLGRIMYTVFEHTFHVREGDEQRTFFSFPAVVAPFKCSVLPLSQNQEFMPFVKELSEALTRHGVSHKVDDSSGSIGRRYARTDEIGVAFGVTIDFDTVNKTPHTATLRDRDSMRQIRAEISELPSIVQDLANGNITWADVEARYPLFEGQETGKKETIEE
notes: GlyRS-His fusion protein in the pull-down and cell assays; also called G240R GlyRS; not shown: His tag
Regarding B6, in series [1], the Kd turned out to be 11000 nM and the “fold increase in Kd of dimerization relative to WT GlyRS” value turned out to be 20 fold. Besides, in series [2], the Cell number % turned out to be 42%.
